{"source": "the nanobody polyreactivity screen of Harvey et al. (2022)", "data": [{"experiment": "yeast display, Sf9 membrane polyspecificity reagent, FACS + sequencing; frameworks hold sequencing errors", "method_in_brief": "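Genes from sorted yeast were amplified by colony PCR, read by MiSeq 2 × 250 sequencing and filtered on CDR length. These cells carried a synthetic nanobody library in Saccharomyces cerevisiae BJ5465 and were sorted by FACS into low and high (top ~1%) gates on anti-HA and streptavidin fluorescence. Polyreactivity is labelled according to the gate of origin.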", "values": [{"sequence": "QVQLVESGGGLVQAGGSLRLSCAASGRIFYRYAMGWYRQAPGKERELVASIRFSDGSTYYADSVKGRFTISRDNAKNTVYLQMNSLKPEDTALYYCAARPLRSRNGYYWGQGTQVTVSS", "polyreactivity (PSR sort gate)": "high polyreactivity"}, {"sequence": "QVQLVESGGGLVQAGGSIRLSCAASGRTFYGYAMGRYRQAPGKEREFDAAISVGGVSTYYADSVKGRFTISRDNAKNTVYLQMNSLKPEDTAVYYCAAYTRYWSYGYWGQGTQVTVSS", "polyreactivity (PSR sort gate)": "high polyreactivity"}, {"sequence": "QVQLVESGGGLVHAGGSLRLSCAASGSTFKIYAMGLYRQAPGKERELVASIRGRGGSTYYADSVKGRFTISRDNAKNTVYLQMNSLKPEDTAVYYCNATYGHRYPACISYDYWGQGTQGTVSS", "polyreactivity (PSR sort gate)": "high polyreactivity"}, {"sequence": "QVQLVESGGGLVQAGGSLRLSCAASGNTFYGYAMGWYRQAPGKERVLVATIDSGGSTNYADSVKGRFTISRDNAKNTVYFQMNSLKPEDTAVYYCAADGVWYYNDMDYWGQGTQVTVSS", "polyreactivity (PSR sort gate)": "low polyreactivity"}, {"sequence": "QVHLVESGGGLVQAGGSLRLSCAASGLIFLYYAMGWYRQAPGKERELVAAISSGGSTYYADSVKGRFTISRDNAKNTVFLQMNSLTPEDTAVYYCAAADSYSSLEYWGQGTQVTVSS", "polyreactivity (PSR sort gate)": "high polyreactivity"}, {"sequence": "QVQLVESGGGLVQAGGSLRLSWAASGSIFNTYVMGWYRQAPGKEWELVAAITYSAGGDTYYADSVKGRFTISRDNAKNTVYLQMNSLKPEDTAVYYCAAEYTYLDAYGSYDYWGQGTQVTVSS", "polyreactivity (PSR sort gate)": "low polyreactivity"}, {"sequence": "QVQLVESGGGLVQAGGSLRLTCAASGFTFPDKAMGWYRQAPGNERELVAALTTSGGRTYYADSVKGRFTISRDNAKNTVYLQMNRLKPEDTAVYYCARPSRQSHWYYYWGQGTQVTVSS", "polyreactivity (PSR sort gate)": "high polyreactivity"}, {"sequence": "QVQLVESGGGLVQAGGSLRLSCAASGRIFGWYAMGWYRQAPGKERELVAGISSSSGSTNYADSVKGRFSISRDNAKNTVYLQMNSLKPEDTAVYYCAADGGGTYYSFYYWGQGTQVTVSS", "polyreactivity (PSR sort gate)": "low polyreactivity"}, {"sequence": "QVQLVESGGGLVQAGGSLRLSCAASGRIFSGYTMGWYRQAPGKERELVAAITRSGGSTYYADSVKGRFTISRDNAKNTVYLQMISLKPEDTAVYYCNKVSYRHMDSWGQGTQVTVSS", "polyreactivity (PSR sort gate)": "high polyreactivity"}, {"sequence": "QDQLVESGGGLVQAGGSLRLSCAASGRIFLYNAMGWYRQAPGKERELVAAIDGGGTTYADSVKGRFTISRDNAKNTVYLQMNSLKPEDTAVYYCAADWYYQYSIYRYGYWGQGTQVTVSS", "polyreactivity (PSR sort gate)": "low polyreactivity"}, {"sequence": "QVQLVESAGGLVQAGVSLRLSCAASGIIFPYYTMGWYRQAPGKERELVARITNGGRTYYADSVKGRFTISRDNAKNTVYLQMNSLKPEDTAVYYCNAGRYYIGGYWGQGTQVTVSS", "polyreactivity (PSR sort gate)": "high polyreactivity"}, {"sequence": "QVQLVESGGGLVQAVGSLRLSCAASGSTFPRYAMRWYRQAPGKERELVAAISRSGGSTYYADSVKGRFTISRDNATNTVYLQMNSLKPEDTAVYYCAARDDRGSYKYDYWRQGTQVTVSS", "polyreactivity (PSR sort gate)": "high polyreactivity"}, {"sequence": "QVQLVESGGGLVQAGGSLRLSCAASGLTFGYYTMGWYRQAPGKERELVAAITYSGGSTYYADSVKGRFTISRDNAKNSVYLQMYSLKPEDTAVYYCAADGPVYTTYEYWGQGTQVTVSS", "polyreactivity (PSR sort gate)": "low polyreactivity"}, {"sequence": "QVQLVESGGVLVQALGSLRLSCAASVITIDNYVMGWYRQAPGKERELVAAISIGGGTYYADSVKGRFTISRDNAKNTVYLQMNSRKPEDSAVYYCKARSDVSYWWGGYWGQGTQVTVSS", "polyreactivity (PSR sort gate)": "low polyreactivity"}, {"sequence": "QVQLVESGGGLVQAGGSLRLSSADSGSIFVYYAMGWYRQEPGKESELVATIRSSGARTYYADSVKGRFTISRDNAKNTVYLQINSLKPEDTAVYYCNARYVPYWAYGYGYWGQGTQVTVSS", "polyreactivity (PSR sort gate)": "high polyreactivity"}, {"sequence": "QVQLVESGGGLVQAGGSLRLSCAASGSIFGPNAMGWYRQAPGKERELVAAISKSGSSTYYADSVKGRFTISRDNAKNTVYLQMNSLKREDTAVYYCAAKVSYSGVFSYYYWGQGTQVTVSS", "polyreactivity (PSR sort gate)": "high polyreactivity"}, {"sequence": "QVQLVESGGGLVQAGGSLRLICAASGRTFRFYAMGWYRQAPGKERELVAAINYGGGNTYYADSVKGRFTISRDNAKNTVYLQMNSLKADDTAVYYCAAQYYYRARWFPYDYWGQGTQVTVSS", "polyreactivity (PSR sort gate)": "high polyreactivity"}, {"sequence": "QVQLVESGGGLVQAGGSLRLSCAASGRTFKTYAMGWYRQAPGKERELVAAITRRGGSTYYADSVKGRFTISSDNAKNTVYLQMNRLKPEDTAVYYCAAGFYFLSLFSGRMDYWGQGTQVTVSS", "polyreactivity (PSR sort gate)": "high polyreactivity"}, {"sequence": "QVQLVESGGGLVQAGGSLRLSCAASGYILPKNTMGWYRQAPGKERELVAAISWSGGSTFYADSVKGRFTISRDNAKNTVYLQMNSLKPEDTAVYYCAADRSWSWYYRYDYWGQGTQVTVSS", "polyreactivity (PSR sort gate)": "low polyreactivity"}, {"sequence": "QVQLVESGGGLVQAGGSLRLSCAASGLIFGWYAMGWYRQAPGKERELVASISRSGGSTYYADSVKGRFTISRDNAKNTVYLQMNSLKPEDTAVYYCAALYYGFRLTYGYDYWGQGTQVTVSS", "polyreactivity (PSR sort gate)": "high polyreactivity"}, {"sequence": "QVQLVESGGGLVQAGGSLRLSCAASGSTFRKYAMGWYRQAPGKERELVATISRGTSTYYADSVKGRFTISRDNAKNTVYLQMNSLKPEDTAVYYCNAGYYNKRDGGYTYNYWGQGTQVTVSS", "polyreactivity (PSR sort gate)": "low polyreactivity"}, {"sequence": "QVQLVESGGGLVQAGGSLRLSCAASGRTFRFYTMGWYRQAPGKERELVADISWTSGRTYYADSVKGRFTISRDNAKNTVYLQMNSLKPEDTAVYYCAAYFFSRYSLYDYWGQGTQVTVSS", "polyreactivity (PSR sort gate)": "high polyreactivity"}, {"sequence": "QVQLLESGGGLVQAGGSLRLSCAASGFTITRYAMGWYRQAPGKERELVAAITYRGGSTYYADSVKGRFTISRDNAKITVYLQMNSLKPEDTAVYYCAADALYYFSWYYYWGQGTQVTVSS", "polyreactivity (PSR sort gate)": "high polyreactivity"}, {"sequence": "QVLLVESGGGLVQAGGSIRLSCAASGFIFWSNSLGWYRPAPGQEMELVAAISWSGGSTYYADSVKGRFTISRDNAKNNVYLEMNSVKPEDTAVYYCAARQTYGYRYTKYGYWGQGTQVTVSS", "polyreactivity (PSR sort gate)": "high polyreactivity"}, {"sequence": "QVQVVESGGGLVQPGGSLRLSCAASGSTFGGKAMGWYRQATGKERELVAGITSSGTSTYYADSVKGRFTISRDNAKNTVFLQMNSLKPEDTAVYYCATDEAVESYGFELFDYWGQGTQVTVSS", "polyreactivity (PSR sort gate)": "low polyreactivity"}, {"sequence": "QVQLVESGGGLDQARGSLRLSCAASGSTLAVYAIGWYRQAPGKEREFVAAISWSGVSTYYADSVKGRFTISLDNAKNTVYLQMNSLKPEDTAVYDCAAKRVRALYGGSEGGYWGQGTQVTVSS", "polyreactivity (PSR sort gate)": "low polyreactivity"}, {"sequence": "QVQLVESGGGLVQAGGSLRLSCAASGRTFYYNAMGWYRQAPGKERELVATITSGGSTNYADSVKGRFTISRDYAKNTVYLQMNSLKPEDTAVDYCATTRYRTYADVNSRYGYWGQGTQVTVSS", "polyreactivity (PSR sort gate)": "low polyreactivity"}, {"sequence": "QVQLVESGGGLVQAGGSLRLSCAASGRTFKGNAMGWYRPAPGKERELVAVITGSGGSTYYADSVKGRFTISRDNAKNTVYLQMHSLKPEDTAVYYCAKQVRSYVRWEYDYWGQGTQGTVSS", "polyreactivity (PSR sort gate)": "low polyreactivity"}, {"sequence": "QVQLVESGGGLVQAGGSLRLSCAASGSIFLLYAMGWYRQAPGKERELVAAIRWSGARTYYADSVKGRFTISRDKAKNTVYLQMNSLKPDDTAVYYCAADYVVDDIYWWEGDYWGQGTQVTVSS", "polyreactivity (PSR sort gate)": "high polyreactivity"}, {"sequence": "QVQLVESGGGLVQAGGSLRLSCAASGRTFRKYAMGWYRPAPGKERELVAAISWSGGSTRYADYVKGRFTISRDNEKNTVYLQMNSLKPEDTAVYYCNAVRRYRSTHPSYHTFNYWGQGTQVTVSS", "polyreactivity (PSR sort gate)": "high polyreactivity"}, {"sequence": "QVQLEESGVGLVQAGGSLRLSWAASGFIIYINTMGWYRQAPGKERELVAAISQSGVGTSYADSVKGRFTISRDNAKNTVYLQMNRLKPEDTAVYYCATDCARSDVVDRFDYWGQGTQVTVSS", "polyreactivity (PSR sort gate)": "low polyreactivity"}, {"sequence": "QVQLVESGGGLVQAGGSLRLSCAASGSIIRWNAMGWYRQAPGKERELVAAISYSGGSTYYADSVKGRFTISRDNAKNTVYLQMNSLKPEDTAVYYCAKEYIVGFYLVFNRFDYWGQGTQVTVSS", "polyreactivity (PSR sort gate)": "low polyreactivity"}, {"sequence": "QVQLVESGVGLVQAGGSLRLSCAASGGTFRPYAMGWYRHAPGKESELVAAISYTGSTYYADSVKGRFTISRDNAKNTVYLQMNSLKPVDTAVYYCAKDLWYPPRFDYWGQGTQVTVSS", "polyreactivity (PSR sort gate)": "low polyreactivity"}, {"sequence": "QVQLVESGGGLVQAGGSLRLSCAASGFIFWKNAMGWYRQAPGKERELVAAISWSGGRTYYADSVKGRFTISRDNAKNTVYLQMNSLKPEDTGVYYCDASVGPFPVRGDYWGQGTQVTVSS", "polyreactivity (PSR sort gate)": "low polyreactivity"}, {"sequence": "QVQLVESRRGLVQAGGSLRLSCAASGRISNEYAMVWSRQAPGKERELVATITFSGGDTYYADSVKGRFTISRHNAKNTVYLHKNSLKPEDSAVYYCAASKWRSYCGGWWRLQFDYWGQGTQVTVSS", "polyreactivity (PSR sort gate)": "low polyreactivity"}, {"sequence": "QVQLVESGGGLVQAGGSLRLSCAASGLTFNWYAMGWYRQAPGKERELVAAINRRGVITYYADSVKGRFTISRDNAKNTVYLQMNSLKPEDTAVYYCNAAYGYVSRVYYLIEHDYWGQGTHVTVSS", "polyreactivity (PSR sort gate)": "high polyreactivity"}, {"sequence": "QVQLVESGGCLVQAGGSLRLSCAASGIIFTYYAMGWSRQAPGKESELVARISSSGGRTYYADSVKGRVTISRDNGKNTVYLQMNSLNPEDTAVYYCAAAIVSYGRNDYWGQGTQVTVSS", "polyreactivity (PSR sort gate)": "high polyreactivity"}, {"sequence": "QVQLVESGGGLVQAGGSLRLSCAASGRIFYYYDMGWYRQAPGKERELVAAITYSDSSTYADSVKGRFTISRDNAKNTVYLQMNSLKPEDTAVYYCAADYVYPGVRLEMDYWGQGTQVTVSS", "polyreactivity (PSR sort gate)": "low polyreactivity"}, {"sequence": "QVQLVESGGGLVQAGGSLRLSCAASGFTFYSYVIGWYRQAPGKERELVAAITRGGSTYYADSVKGRFTISRDNAKNTVYLQMNSLKPEDTAVYYCAKRPSYGYNYWGQGTQVTVSS", "polyreactivity (PSR sort gate)": "low polyreactivity"}, {"sequence": "QVQLVESGGGLVQAGGSLRLSCAASGRIFVHYVMGWYRQAPGKERELVAAISRSGGRTYYADSVKGRFTISRDNAKNTVYLQMNSLKPEDTAVYYCNVYHWSRVFAIDYYWGQGTQVTVSS", "polyreactivity (PSR sort gate)": "high polyreactivity"}, {"sequence": "QVQLVESGVGLVQAAGSLRLSCAASGFIFWVNAMGWYRQAPGKEREFVAAIRSSGGNTYYADSVKGRFTISRDNAKNTVYLQMNSLKPEDTAVYYCAADSVIVTYESDYWGQGTQVTVSS", "polyreactivity (PSR sort gate)": "low polyreactivity"}]}]}
